According to article PMC7749160, “Mycobacterial HelD is a nucleic acids-clearing factor for RNA polymerase” (Nature Communications, 2020):

What was measured:
[1] = biological target: T1, β subunit of Mycobacterium smegmatis RNA polymerase (as in the recombinant core m2) (Mycobacterium smegmatis, UniProt P60281 1-1169); test: cryo-EM structure; HelD and RNAP core mixed at a molar ratio of 3:1, 4 °C, 15 min; complex isolated on Superose 6 Increase in 20 mM Tris-HCl pH 7.8, 150 mM NaCl, 10 mM MgCl2, 1 mM DTT; three states (I, II, III) from one sample; details: both partners purified
T1 construct: RNA polymerase subunit β, Mycobacterium smegmatis; In the cryo-EM sample it stood on one chain with β′ (β–β′ fusion of m2), within the core enzyme; also called RNAP β; source: E. coli BL21(DE3), purified as part of the RNAP core (β–β′ fusion)
T1 sequence: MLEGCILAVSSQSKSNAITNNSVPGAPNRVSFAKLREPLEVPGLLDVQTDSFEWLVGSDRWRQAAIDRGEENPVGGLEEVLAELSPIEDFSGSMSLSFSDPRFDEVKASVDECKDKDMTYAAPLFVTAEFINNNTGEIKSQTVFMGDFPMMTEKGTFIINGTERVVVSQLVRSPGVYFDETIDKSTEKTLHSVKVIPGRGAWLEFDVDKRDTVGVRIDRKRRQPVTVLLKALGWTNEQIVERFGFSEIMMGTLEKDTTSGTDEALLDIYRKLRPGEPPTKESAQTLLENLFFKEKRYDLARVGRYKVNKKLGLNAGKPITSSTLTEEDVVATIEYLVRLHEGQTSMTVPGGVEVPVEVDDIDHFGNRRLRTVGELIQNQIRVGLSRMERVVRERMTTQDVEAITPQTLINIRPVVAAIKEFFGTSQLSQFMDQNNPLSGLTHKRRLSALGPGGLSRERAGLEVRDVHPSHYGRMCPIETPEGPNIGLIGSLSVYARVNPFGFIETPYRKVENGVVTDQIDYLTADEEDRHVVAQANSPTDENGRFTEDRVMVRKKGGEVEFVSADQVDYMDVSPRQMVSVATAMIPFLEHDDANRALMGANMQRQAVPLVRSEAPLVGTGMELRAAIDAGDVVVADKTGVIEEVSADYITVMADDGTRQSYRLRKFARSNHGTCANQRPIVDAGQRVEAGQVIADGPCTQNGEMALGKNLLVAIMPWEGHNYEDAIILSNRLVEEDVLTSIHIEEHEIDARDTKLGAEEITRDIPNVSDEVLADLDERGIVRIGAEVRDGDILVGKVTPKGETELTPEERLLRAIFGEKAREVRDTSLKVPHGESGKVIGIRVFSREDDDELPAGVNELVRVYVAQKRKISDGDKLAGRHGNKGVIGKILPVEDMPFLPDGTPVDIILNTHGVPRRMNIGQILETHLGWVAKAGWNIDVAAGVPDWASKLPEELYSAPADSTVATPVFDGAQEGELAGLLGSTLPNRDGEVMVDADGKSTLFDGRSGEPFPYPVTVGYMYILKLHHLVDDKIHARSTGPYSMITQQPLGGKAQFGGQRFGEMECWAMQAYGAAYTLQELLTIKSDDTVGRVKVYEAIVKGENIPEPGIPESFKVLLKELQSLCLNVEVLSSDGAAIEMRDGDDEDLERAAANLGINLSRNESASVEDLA

[2] = biological target: T2, β′ subunit of Mycobacterium smegmatis RNA polymerase (as in the recombinant core m2) (Mycobacterium smegmatis, UniProt A0QS66 1-1317); test: as above; details: both partners purified
T2 construct: RNA polymerase subunit β′, Mycobacterium smegmatis; In the cryo-EM sample it stood on one chain with β (β–β′ fusion of m2), within the core enzyme; also called RNAP β′; source: E. coli BL21(DE3), purified as part of the RNAP core (β–β′ fusion)

B1: Mycobacterium smegmatis HelD (MSMEG_2174), recombinant (natural protein, UniProt A0QUE0 2-736, looked up)
chain: SGRDYEDELQSERDYVAGLYARLDAERAQSQRRYAAALREHGGTAVERDAEVRALAKDIARLNVADNGLCFGRLDTLDDARLYIGRLGIFDRDNDFEPLLLDWRAPMARPFYVATAANPENMRRRRQFHTLGRKVVDFTDEILGRPTGAEHDATNDAALLAAVNAPRGEGMRDIVATIQAEQDQVIRLDHTGVLVIEGGPGTGKTVVALHRVAYLLYTYRKQMERHGVLVVGPTPAFLDHIGRVLPSLGESDAVFMTPGDFVPGLHVTAEDTPEAAEVKGSLKILDVLKAAVADRQELPSEPIPIDLSDVTMRIDAETAKWARDEARKTGLPHNEARAEFVDVVTYVVTERAVARIGRGWLTRDDKHAWEKMRADVVGELEDHEQFNAALDALWPILTPEDVLAQLYTSHERLRAAGAPECLWRADGEAWTVSDVPLLDELVDLLGRNKAADEAAERERREEEAYAAGVLDLMVDREDLMDDEDHLLAQDLIDAEELADRFKEQDNRELSERAAADREWTYGHVVVDEAQELSEMDWRLLMRRCPRRSFTIVGDLAQRRSPAGARSWGAMLDSYVPGRWVYKSLSVNYRTPAEIMAVAAAVLAEFAPDATPPDSVRACGVAPWARQVTDDDIASAIAEFVSEEAGREGTSVVIGPPDVPGTVPPSETKGLEFDAVLVVEPERILADGPRGAAELYVALTRATQRLGVLYRDALPQALAGLAEGDAAATVEQRTSA
notes: HelD, gene MSMEG_2174 of Mycobacterium smegmatis strain ATCC 700084/mc2 155; the tag is followed by the second amino acid of MSMEG_2174; Codon-optimised synthetic gene in pET302/NT-His; also called Msm HelD; source: E. coli Lemo 21 (DE3), purified (HisTrap, TEV protease, Superdex 75)
- binding result [1]: binds
- binding result [2]: binds
